From CN116769021A
Read-outs that look alike come from different tables or passages of the source.

Key:
[1] = biological target: AHSV VP7重组蛋白 (recombinant African horse sickness virus VP7 protein) (African horse sickness virus)
[2] = biological target: AHSV VP7重组蛋白 (recombinant African horse sickness virus VP7 protein) (African horse sickness virus); assay: indirect ELISA on coated recombinant VP7 (0.5 ug/mL); 1H4 at 1 ug/mL (1:2000)
[3] = biological target: AHSV VP7重组蛋白 (recombinant African horse sickness virus VP7 protein) (African horse sickness virus); assay: indirect ELISA on coated recombinant VP7 (0.5 ug/mL); 1H4 at 0.5 ug/mL (1:4000)
[4] = biological target: AHSV VP7重组蛋白 (recombinant African horse sickness virus VP7 protein) (African horse sickness virus); assay: indirect ELISA on coated recombinant VP7; end-point titer by P/N > 2.1
[5] = biological target: AHSV VP7重组蛋白 (recombinant African horse sickness virus VP7 protein) (African horse sickness virus); assay: indirect ELISA on coated recombinant VP7 (0.5 ug/mL); 1H4 at 0.25 ug/mL (1:8000)
[6] = biological target: AHSV VP7重组蛋白 (recombinant African horse sickness virus VP7 protein) (African horse sickness virus); remark: listed apart in the source

| Molecule | OD450 [1] [OD450] | OD450 [2] [OD450] | OD450 [3] [OD450] | 效价 (ELISA titer, P/N > 2.1) (dilution factor (1:x)) [4] | 效价对应的稀释浓度 (antibody concentration at the end-point titer) [4] [ng/mL] | OD450 [5] [OD450] | OD450 [6] [OD450] |
| --- | --- | --- | --- | --- | --- | --- | --- |
| 阴性抗体 (negative antibody) | 0.0378 | – | – | – | – | – | – |
| 抗AHSV VP7单克隆抗体1H4 (monoclonal antibody 1H4 against African horse sickness virus VP7 protein) (antibody, V domains shown) VH: EVQLVESGGGLVQPGGSLKLSCAASGFTFSRYGMSWVRQTPDKRLELVAIIKNDGRSSYYPDSVKGRFTIYRDNAKNTLYLQMSTLKSEDTAMYHCAYGSSLYWYFDVWGAGTTVTVSS VL: DVLMTQTPLSLPVSLGDQASISCRSSQSIVHSNGNTYLEWYLQKPGQSPKLLIYKVSNRFSGVPARFSGSGSGTGFTLKISRVEAEDLGVYYCFQGSHVPPTFGGGTKLEIK | – | 4.09 | 2.87 | 1.02e+06 | 1.95 | 2.93 | 3.58 |
